From the supplement of paper PMC9170038 come the findings set out here.

In this data set the test system is MS2 coat protein. Kind of data set: apparent KD of MS2 coat protein; designed switch direction (-1 OFF switch, 1 ON switch): 1; higher = weaker reporter binding. The method, boiled down: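 Designed RNA switches with common flanks were transcribed on Illumina chips by stalled E. coli RNA polymerase and titrated with SNAP-549-labelled MS2 coat protein, from 0.7 or 1.5 nM doubling to 3 µM, in Tris-HCl pH 7.5 buffer with KCl, MgCl2, BSA, DTT, tRNA and Tween-20. Steps lasted 0.8–1.5 h (lowest) to 10–20 min (highest). Titrations ran without input, with 200 uM small-molecule ligand, or with an oligonucleotide input. Normalised cluster fluorescence was curve-fitted, and apparent KD is the per-design median over clusters.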

Setting [1] is: input ligand: microRNA oligo, concentration not stated.
Where [2] appears, read: Eterna round: R95, input ligand: microRNA oligo, concentration not stated.
Setting [3] is: Eterna round: R95, input ligand: FMN 200 uM.
Setting [4] is: Eterna round: R95, input ligand: none.

As for “AGAUCAUGACGAGGAUAUGGUACAUGAGGAUCACCCAUGUAUGUACCACGACGCGUACGUCGAAUCCAGAAGGCGUCGUGAUCA [Mat - Same State NG 2 - JL mod - D16] (Eterna round: R96, puzzle: Same State NG 2)”, the “apparent KD of MS2 coat protein” value stood at 19 nM (input ligand: FMN 200 uM), 66.1 nM under setting [1] and 99.3 nM (input ligand: none).
In the case of “UUUAGUUGCGGGCAGGAUAUGUAUUAAAAUACAUGAGGAUCACCCAUGUGCGGGUGUAACACCCGACAGAAGGGCCAAUCGCGAC [Laonerce - 13] (puzzle: Same State 2)”, under setting [2], the “apparent KD of MS2 coat protein” value stood at 220 nM.
Take “AGAGGAGGAGCAGGAUAUUCGAAGAAGGACGUGGAAGAAGGGUUCAUGCGAUGACAUGAGGAUCACCCAUGUACCGCGCGAUGA [AK SSNG1-V2-13] (Eterna round: R96, puzzle: Same State NG 1)”: the “apparent KD of MS2 coat protein” value reads like this: (input ligand: FMN 200 uM) 145 nM; under setting [1], 115 nM; (input ligand: none) 130 nM.
As to “GUACAGAUCACAGGAUAUCACGUCGUUUAGACGUGAGAAGGGUGAUCACACAUGAAUAUUAAUACAUGAGGAUCACCCAUGUAC [SSNG1/16-A3] (Eterna round: R96, puzzle: Same State NG 1)”, under setting [1], the “apparent KD of MS2 coat protein” value is 22.1 nM.
Consider “AGGAAACAUGAGGAUCACCCAUGUAUCGAGCCGCGAGGAUAUGGGUAUCAAAGGCGAGGAUCAGAAGGUGCAGGCG [Eseddierve] (puzzle: Same State 1)”, for which the “apparent KD of MS2 coat protein” value is, setting by setting: under setting [3], 235 nM; under setting [2], 54.9 nM; under setting [4], 153 nM.
For the sequence “UCUUGGUUUUUGCUCGUUUUUUGUGUUGAACAUGAGGAUCACCCAUGUAUUGUACGAUCCAAUUUAAUAAUGGUCCG [JMF 60] (puzzle: Sensor for hsa-mir-208a)”, the “apparent KD of MS2 coat protein” value by setting is: under setting [3], 42.6 nM; under setting [2], 33.6 nM; under setting [4], 50.2 nM.
“ACAUGAGACCGAGGAUAUUUUGUACCUACAUGUGACAUGAGGAUCACCCAUGUGGUAAGUAUGAGAAAGAAGGCGGAGAUAUGU [Equivalence 20 - Jieux - Same State NG 2] (Eterna round: R96, puzzle: Same State NG 2)”: the “apparent KD of MS2 coat protein” value runs as follows: (input ligand: FMN 200 uM) 22.4 nM; under setting [1], 24.8 nM; (input ligand: none) 32.6 nM.
In the same order, the values of “GAGAGAGGGCGAGGAUAUUCGGUGAUAAUGAUGGAAGAAGGCGCAGACAUGAGGAUCACCCAUGUGGGAAUAAUCCAGAGAGAG [Parity 14 - Jieux - Same State NG 1] (Eterna round: R96, puzzle: Same State NG 1)” are 206 nM, 101 nM and 131 nM.
Consider “GAGUUACAUGAGGAUCACCCAUGUUGUUGUGGAUAAGGAUAUAUGGUAGGAAGAGGAAUGAUAGAAGGUAUUAGGG [JR_SS1_Sub064] (puzzle: Same State 1)”, for which, under setting [2], the “apparent KD of MS2 coat protein” value stood at 34.7 nM.
With “CUGAGCAAUCGAGGAUAUCACGUCGUUUAGACGUGAGAAGGCGAUCAUAACAUGAGGAUCACCCAUGUAUUACAUGAAGCUCAG [SSNG1/4-A3] (Eterna round: R96, puzzle: Same State NG 1)”, the “apparent KD of MS2 coat protein” value stood at 13.6 nM (input ligand: FMN 200 uM), 10.1 nM under setting [1] and 13.3 nM (input ligand: none).
Turning to “CGUAGGUGGCUGGAGGAUAUUCGAGUGGUAACAUGAGGAUCACCCAUGUGUCGCGCGGUACAUGAGGAGAAGGCUAGCGGCCUGC (puzzle: Same State 2)”, the “apparent KD of MS2 coat protein” value is, setting by setting: under setting [3], 20.8 nM; under setting [2], 118 nM; under setting [4], 250 nM.
“AUUAAUAAUCUAGGAUAUCACGUCGAUUAGACGUGAGAAGGAGAUCAUAACAUGAGGAUCACCCAUGUAUUACAUGAAGUUAAU [SSNG1/7-B2] (Eterna round: R96, puzzle: Same State NG 1)”: the “apparent KD of MS2 coat protein” value by setting is: (input ligand: FMN 200 uM) 27.5 nM; under setting [1], 28.8 nM; (input ligand: none) 38.1 nM.
In the case of “AUAAAACAUGAGGAUCACCCAUGUCAACAAAGUCGAGGAUAUGGGCAAAUAAAAUAAGUACCAGAAGGCGAAUAAU [salish99_ss1_r3_017] (puzzle: Same State 1)”, the “apparent KD of MS2 coat protein” value was determined as 34.1 nM under setting [3], 106 nM under setting [2] and 108 nM under setting [4].
In the case of “GAGCCAGUCCGAGGAUAUUCGUAUUAACACAUGAGGAUCACCCAUGUGGGCUCAGAAGAGCCCUGGGAGAAGGCGGGCUGGCUC [SS-NG2-LRO17] (Eterna round: R96, puzzle: Same State NG 2)”, the “apparent KD of MS2 coat protein” value is, setting by setting: (input ligand: FMN 200 uM) 11.8 nM; under setting [1], 30.9 nM; (input ligand: none) 48.4 nM.
Regarding “GCAGGACGAUAAUAUAUCUUCACAUGAGGAUCACCCAUGUCUCAGGAUAUGGAUCCUAAUUGGAUCCAGAAGGGAGCGUCCUGC [Fiskers NG3ss - 33] (Eterna round: R96, puzzle: Same State NG 3)”, the “apparent KD of MS2 coat protein” value (input ligand: FMN 200 uM) stood at 33.2 nM, the “apparent KD of MS2 coat protein” value under setting [1] was determined as 43.3 nM and the “apparent KD of MS2 coat protein” value (input ligand: none) came out at 54.4 nM.
As to “AUUAAACAUGAGGAUCACCCAUGUAAUAUUAUGGGAGGAUAUGCGAAUUUAAUUAAUUAAGCAGAAGGCCUAAUUA [Mat - Same State 1 - D101] (puzzle: Same State 1)”, the “apparent KD of MS2 coat protein” value under setting [2] came to 106 nM.
Turning to “CGUCGCUGUCGAGAGGAUAUGCGGUGAUGGACAUGAGGAUCACCCAUGUUAGCGAUAGCAUCGCGGCAGAAGGCUCUUACGACUG [Soteed Omei mod 28] (puzzle: Same State 2)”, the “apparent KD of MS2 coat protein” value is, setting by setting: under setting [3], 18.6 nM; under setting [2], 19.8 nM; under setting [4], 23.7 nM.
Consider “UAUAAACAUGAGGAUCACCCAUGUAAUAAUAUGGGAGGAUAUCAGAUUUAAUUUAAUUUAUGAGAAGGCCUAAUAU [Mat - Same State 1 - Mod of Eli - D66] (Eterna round: R96, puzzle: Same State 1)”, for which the “apparent KD of MS2 coat protein” value under setting [1] was found to be 427 nM.
With “CGUCGUUUGGUAGGAUAUCGCUAUACAUGAGGAUCACCCAUGUUUACCACGCUGGUUUUUCAUACCGAGAAGGAUUCUGAUGUU [salish99_SSNG02_r04_017] (Eterna round: R96, puzzle: Same State NG 2)”, the “apparent KD of MS2 coat protein” value turned out to be 16 nM (input ligand: FMN 200 uM), 14.9 nM under setting [1] and 19.8 nM (input ligand: none).
In the case of “UCUUGGUUUUUGCUCGUUUUUUGUGUUGAACAUGAGGAUCACCCAUGUAUUGUACGGUCCGGUUUAGUGAUGAUCCG [JMF 73] (puzzle: Sensor for hsa-mir-208a)”, the “apparent KD of MS2 coat protein” value reads like this: under setting [3], 39.1 nM; under setting [2], 31.3 nM; under setting [4], 45.6 nM.
On to “AGUCCAGCCUGAGCUGGACAAAAGCAUGUACAUGAGGAUCACCCAUGUUCAUGUACAAGCUUUUUGCUCGUCUUAGG [salish99_208a_r3_062] (puzzle: Sensor for hsa-mir-208a)”, for which the “apparent KD of MS2 coat protein” value under setting [3] was 375 nM, the “apparent KD of MS2 coat protein” value under setting [2] is 21.8 nM and the “apparent KD of MS2 coat protein” value under setting [4] turned out to be 686 nM.
For the sequence “UGAAUAGUGAUAGGAUAUACAUGAGGAAUCCUCGUAGAAGGAUCAUAACAUGAGGAUCACCCAUGUAGCGCUCAGAAGAGCGCA [Mat - Same State NG 1 - JL mod - D54] (Eterna round: R96, puzzle: Same State NG 1)”, the “apparent KD of MS2 coat protein” value by setting is: (input ligand: FMN 200 uM) 31.5 nM; under setting [1], 37.1 nM; (input ligand: none) 81.3 nM.
